The values below come from patent US20100211325A1.

Broadly, the Kd is the free concentration of one partner at which half of the binding sites on the other are occupied at equilibrium, for simple one-to-one binding. The term koff denotes a measure of how fast the partners let go of each other. A lower koff goes with slow dissociation. As usually defined, the kon is a measure of how fast the partners come together.

The target in test [1] is Laminin 511/521 (LM511/521) (UniProt O15230). Kind of test: SPR (Biacore X), Lu gpFc captured on protein A chip (40 RU), 100 µl injection of 10 nM LM511/521, total change in RU. (In SPR one partner is held on a chip, and binding of the other changes the refractive index at the surface.)
Test [2] has the same target. Put plainly: SPR (Biacore) of FIG. 6e, 100 µl injection of 10 nM LM511/521 at 30 µl/min.
Test [3] shares this target. Put plainly: ELISA of FIG. 6d, 0.05 nM Lu protein, LM511/521 added, anti-laminin detection.
Test [4] shares this target. Put plainly: electron tomography (Protein Tomography) of an equimolar mixture of Lu gpFc and LM511/521.
The target is the same in test [5]. Kind of test: ELISA, 0.05 nM Lu gpFc captured by anti-human Fc, 5 nM LM511/521, anti-laminin detection. In general terms: An ELISA detects its analyte on a solid surface through an enzyme-linked reagent.
For test [6] the target is unchanged.
Experiment: not given

Test [7] has the same target. Put plainly: ELISA of FIG. 3c, 0.05 nM Lu gpFc captured by anti-Fc, LM511/521 added, anti-laminin detection.
For test [8] the target is unchanged. Put plainly: cell-based or functional assay.
For test [9] the target is unchanged. Kind of test: SPR (Biacore), Lu protein captured, 10 nM LM511/521, against native Lu gp or D1+2+3+4.
For test [10] the target is unchanged. Kind of test: ELISA, Lu protein captured, 5 nM LM511/521, against native Lu gp or D1+2+3+4.

B1: Native Lu gpFc fusion protein (five extracellular domains of human Lutheran glycoprotein fused to Fc) (Fc fusion, not shown: a dimerising Fc or GST)
chain: EVRLSVPPLVEVMRGKSVILDCTPTGTHDHYMLEWFLTDRSGARPRLASAEMQGSELQVTMHDTRGRSPPYQLDSQGRLVLAEAQVGDERDYVCVVRAGAAGTAEATARLNVFAKPEATEVSPNKGTLSVMEDSAQEIATCNSRNGNPAPKITWYRNGQRLEVPVEMNPEGYMTSRTVREASGLLSLTSTLYLRLRKDDRDASFHCAAHYSLPEGRHGRLDSPTFHLTLHYPTEHVQFWVGSPSTPAGWVREGDTVQLLCRGDGSPSPEYTLFRLQDEQEEVLNVNLEGNLTLEGVTRGQSGTYGCRVEDYDAADDVQLSKTLELRVAYLDPLELSEGKVLSLPLNSSAVVNCSVHGLPTPALRWTKDSTPLGDGPMLSLSSITFDSNGTYVCEASLPTVPVLSRTQNFTLLVQGSPELKTAEIEPKADGSWREGDEVTLICSARGHPDPKLSWSQLGGSPAEPIPGRQGWVSSSLTLKVTSALSRDGISCEASNPHGNKRHVFHFGTVSPQTSQA
Consider B1, for which, in [1], the Biacore Δ RUs came to 115 RU. In addition, the total change in RU in test [2] came to 129 RU. This molecule also gave an OD450 in test [3] of 0.99 OD450. Also, the % of LM511/521 molecules bound to Lu gpFc in test [4] was 50 to 60%. The molecule also showed an ELISA % of native Lu gpFc in [5] of 100%. Moreover, in [6], the Kd stood at 7.9 nM, the off-rate constant (koff) turned out to be 0.0126 s⁻¹ and the kon was 1.6e+06 M⁻¹ s⁻¹. The same molecule registered an OD450 in [7] of 0.95 OD450.

B2: Lu gpFc E180A (Fc fusion, not shown: a dimerising Fc or GST)
chain: EVRLSVPPLVEVMRGKSVILDCTPTGTHDHYMLEWFLTDRSGARPRLASAEMQGSELQVTMHDTRGRSPPYQLDSQGRLVLAEAQVGDERDYVCVVRAGAAGTAEATARLNVFAKPEATEVSPNKGTLSVMEDSAQEIATCNSRNGNPAPKITWYRNGQRLEVPVEMNPEGYMTSRTVRAASGLLSLTSTLYLRLRKDDRDASFHCAAHYSLPEGRHGRLDSPTFHLTLHYPTEHVQFWVGSPSTPAGWVREGDTVQLLCRGDGSPSPEYTLFRLQDEQEEVLNVNLEGNLTLEGVTRGQSGTYGCRVEDYDAADDVQLSKTLELRVAYLDPLELSEGKVLSLPLNSSAVVNCSVHGLPTPALRWTKDSTPLGDGPMLSLSSITFDSNGTYVCEASLPTVPVLSRTQNFTLLVQGSPELKTAEIEPKADGSWREGDEVTLICSARGHPDPKLSWSQLGGSPAEPIPGRQGWVSSSLTLKVTSALSRDGISCEASNPHGNKRHVFHFGTVSPQTSQA
The molecule B2 showed a Biacore Δ RUs in test [1] of 78.3 RU. In [5], this molecule returned an ELISA % of native Lu gpFc of 104%.

B3: Lu gpFc E132A/D133A (Fc fusion, not shown: a dimerising Fc or GST)
chain: EVRLSVPPLVEVMRGKSVILDCTPTGTHDHYMLEWFLTDRSGARPRLASAEMQGSELQVTMHDTRGRSPPYQLDSQGRLVLAEAQVGDERDYVCVVRAGAAGTAEATARLNVFAKPEATEVSPNKGTLSVMAASAQEIATCNSRNGNPAPKITWYRNGQRLEVPVEMNPEGYMTSRTVREASGLLSLTSTLYLRLRKDDRDASFHCAAHYSLPEGRHGRLDSPTFHLTLHYPTEHVQFWVGSPSTPAGWVREGDTVQLLCRGDGSPSPEYTLFRLQDEQEEVLNVNLEGNLTLEGVTRGQSGTYGCRVEDYDAADDVQLSKTLELRVAYLDPLELSEGKVLSLPLNSSAVVNCSVHGLPTPALRWTKDSTPLGDGPMLSLSSITFDSNGTYVCEASLPTVPVLSRTQNFTLLVQGSPELKTAEIEPKADGSWREGDEVTLICSARGHPDPKLSWSQLGGSPAEPIPGRQGWVSSSLTLKVTSALSRDGISCEASNPHGNKRHVFHFGTVSPQTSQA
In turn, B3 yielded a Biacore Δ RUs in test [1] of 57.3 RU. The molecule further returned an ELISA % of native Lu gpFc in test [5] of 69.4%.

B4: Human Lutheran glycoprotein on cells (K562 transfectant expressing Lu gp; late stage erythroblasts) (receptor)
chain: EVRLSVPPLVEVMRGKSVILDCTPTGTHDHYMLEWFLTDRSGARPRLASAEMQGSELQVTMHDTRGRSPPYQLDSQGRLVLAEAQVGDERDYVCVVRAGAAGTAEATARLNVFAKPEATEVSPNKGTLSVMEDSAQEIATCNSRNGNPAPKITWYRNGQRLEVPVEMNPEGYMTSRTVREASGLLSLTSTLYLRLRKDDRDASFHCAAHYSLPEGRHGRLDSPTFHLTLHYPTEHVQFWVGSPSTPAGWVREGDTVQLLCRGDGSPSPEYTLFRLQDEQEEVLNVNLEGNLTLEGVTRGQSGTYGCRVEDYDAADDVQLSKTLELRVAYLDPLELSEGKVLSLPLNSSAVVNCSVHGLPTPALRWTKDSTPLGDGPMLSLSSITFDSNGTYVCEASLPTVPVLSRTQNFTLLVQGSPELKTAEIEPKADGSWREGDEVTLICSARGHPDPKLSWSQLGGSPAEPIPGRQGWVSSSLTLKVTSALSRDGISCEASNPHGNKRHVFHFGTVSPQTSQAGVAVMAVAVSVGLLLLVVAVFYCVRRKGGPCCRQRREKGAPPPGEPGLSHSGSEQPEQTGLLMGGASGGARGGSGGFGDEC
Take B4: the cell adhesion assay: % of cells bound to coated laminin in test [8] was 70 to 85%.

B5: Lu gpFc domain deletion protein D1+2+3b (domains 1, 2 and 3, ending L354EL-…-Fc) (Fc fusion, not shown: a dimerising Fc or GST)
chain: EVRLSVPPLVEVMRGKSVILDCTPTGTHDHYMLEWFLTDRSGARPRLASAEMQGSELQVTMHDTRGRSPPYQLDSQGRLVLAEAQVGDERDYVCVVRAGAAGTAEATARLNVFAKPEATEVSPNKGTLSVMEDSAQEIATCNSRNGNPAPKITWYRNGQRLEVPVEMNPEGYMTSRTVREASGLLSLTSTLYLRLRKDDRDASFHCAAHYSLPEGRHGRLDSPTFHLTLHYPTEHVQFWVGSPSTPAGWVREGDTVQLLCRGDGSPSPEYTLFRLQDEQEEVLNVNLEGNLTLEGVTRGQSGTYGCRVEDYDAADDVQLSKTLELRVAYLNSPQTSQA
B5 displayed a % of the binding of native Lu gp (Biacore) in [9] of 42%. In test [10], this molecule yielded a % of the binding of native Lu gp (ELISA) of 68%.
